Measured values from patent US20190367619A1 (ARGENX, published 2019).
Substitutions are numbered along the chain they refer to.

B1: 1A12 scFv-human Fc (Fc fusion)
scFv: QVQLVESGGGLVQPGGSLRVSCAASGFTFSSYYMSWVRQAPGKGLEWVSAINSGGGSTYYADSVKGRFTISRDNAKNTLYLQMNSLKSEDTAVYYCVQNGGIWSFGSWGQGTQVTVSSGGGGSGGGGSGGGGSSSALTQPSAISVSLGQTARITCQGGNFGYYYVSWYQQKPGQAPVQVIYGDSNRPSGIPERFSGSSSGGTATLTISGAQAEDEADYYCLSYESSDYPVFGGGTHLTVL
notes: about 100 kDa on SDS-PAGE; also called 1A12 ScFv-hFc; not shown: CH2-CH3 constant domains of human IgG1 (vector pUPEX50)
B2: 3A03 scFv-human Fc (Fc fusion)
scFv: QVQLVESGGGLVQPGGSLRLSCATSGFTFSVYAMSWVRQAPGKGLEWVADINTSGDSTTYADSVKGRFTISRDNAKNTLYLQMNSLKPEDTAVYYCANRYTQERGQGTQVTVSSGGGGSGGGGSGGGGSDVVLTQTPGSLSVVPGEAASISCKPGRTLVHTDGRTYLYWLQQKPGQRPQLLIYQVSNRGSGVPDRFTGSGSGTDFTLKISGVKAEDAGVYYCAQATYYPLTFGSGTRLEIK
notes: about 100 kDa on SDS-PAGE; also called 3A03 ScFv-hFc; not shown: CH2-CH3 constant domains of human IgG1 (vector pUPEX50)
B3: 5E12 scFv-human Fc (Fc fusion)
scFv: QLQLVESGGGLVQPGGSLRLSCVASGFTFRNYPMTWVRQAPGKGPEWVSAINGGGDIPYYADSVKGRFTISRDNAKNTVYLQMDSLKPEDTAMYYCAKQKWGYDPRRTDFEFRGQGTQVTVSSGGGGSGGGGSGGGGSETVPTQSPSSVTASVGEKVTITCKSSQSVRIESNHKTYLNWYQQRPGRGPRLLIYDASSRESGIPDRFSGSGSTSDFTLTISSVQPEDAAVYYCQQAYAAPTFGQGTKLEIK
notes: about 100 kDa on SDS-PAGE; also called 5E12 ScFv-hFc; not shown: CH2-CH3 constant domains of human IgG1 (vector pUPEX50)
B4: VHH clone 13C03 (VHH)
VHH: QVQLVESGGGLVQPGGSLRLSCAASGSIFSISRMGWYRQAPGKQRELVAIIFSDASTDYADSVKGRFTISRSNAKNTVYLQMNSLKPEDTAVYYCKSVLRAAGYGYFNQYWGQGTQVTVSS
notes: Purified VHH-Myc-His from E. coli; not shown: Myc and His tags of the phagemid vector
B5: VHH clone 13E09 (VHH)
VHH: QVQVQESGGGLVQAGNSLRLSCAASGRTFSSYHMMWFRQAPGKEREFVAAIAWRGGTYCANSVKGRCTISRDNAKDTVYLQMNSLKPEDTAVYFCAASLRYVFDPSAMDYWGKGTLVTVSS
notes: as for B4
B6: VHH clone 13B06 (VHH)
VHH: QVQLVESGGGLVQAGGSLRLSCAASGRTFSTYSMAWFRQAPGKEREFVAAITRSGGNTYADSVKGRFTISRDNAKNTVTLQMNSLKPEDTAAYHCAAGGTYSFVPRSYNYWGQGTQVTVSS
notes: as for B4
B7: VHH clone 13C04 (VHH)
VHH: B6 VHH with Q1E, V2L, L4V
notes: as for B4
B8: scFv 6A11 (periplasmic extract, Myc-tagged) (scFv, not shown: small tags and cut ends)
scFv: ELQLVESGGGLVQPGGSLRLSCSASGFTFGAYAMNWVRQAPGKGLEWVSGVNSGGGLTSYGESVKGRFTISRDNAKNTLYLQMNRLNPDDTAVYYCAKSKRGAVVAGTGDDYWGQGTQVTVSSGGGGSGGGGSGGGGSSSALTQPSAVSVSLGQTARITCQGGNFGRYYVSWYQQKPGQAPVLVIYKDSERPSGIPERFSGSSSGDTATLTISGAQAEDEADYYCQSGSSSDNAVFGGGTHLTVL
B9: scFv 1A12 (periplasmic extract, Myc-tagged) (scFv, not shown: small tags and cut ends)
scFv: B1 scFv
B10: scFv 3A03 (periplasmic extract, Myc-tagged) (scFv, not shown: small tags and cut ends)
scFv: B2 scFv
B11: scFv 2E11 (periplasmic extract, Myc-tagged) (scFv, not shown: small tags and cut ends)
scFv: EVQLVESGGGLVQPGGSLRLSCAASGFTFSSYAMSWVRQAPGKGLEWVSPINSGSDSASYVDSVKGRFTISRDNAKNTLYLQMNSLKPEDTAVYYCAKARTSVVAGGMDYWGKGTLVTVSSGGGGSGGGGSGGGGSQSALTQPSAVSVSLGQTARITCQGGKFGSYYVSWYQQKPGQAPVMVIYKDNERPSGIPERFSGSSSGSTSTLTISGAQAEDEGTYYCQSGSSSDNIVFGGGTELTVF
B12: scFv 5E12 (periplasmic extract, Myc-tagged) (scFv, not shown: small tags and cut ends)
scFv: B3 scFv
B13: scFv 6F05 (periplasmic extract, Myc-tagged) (scFv, not shown: small tags and cut ends)
scFv: QLQLVESGGGLVQPGGSLRLSCAASGFTFSSYAMSWVRQAPGKGLEWVSAINSGGGSTSYADSVKGRFTISRDNAKNTLYLQMNSLKPEDTAVYYCATPGDRLWYYRYDYWGQGTQVTVSSGGGGSGGGGSGGGGSQAGLTQPPSVSGTLGKAVTISCAGTSSDIGYGNYVSWYQQLPGTAPKLLIYKVSRRASGVPDRFSGSKSGNTASLSISGLQSEDEADYYCASYRYRNNVVFGGGTHLTVL
notes: also called 6F5
B14: scFv 6F11 (periplasmic extract, Myc-tagged) (scFv, not shown: small tags and cut ends)
scFv: QVQRQESGPGLVKPSQTLSVTCTVSGGSITTGPYSWSWIRQPPGKGLEWIGYIGYSGSTYYSPSLKSRTSISRDTSNNQFSLQLSSVTPEDTAVYYCARSRSSPTTFGMDYWGKGTLVTVSSGGGGSGGGGSGGGGSSSALTQPSAVSVSLGQTARITCQGGDFGRYYVAWYTQKPGQAPVLVIYQDSERPSGIPERFSGSSSGDTATLTISGAQAEDEAEYYCQSGISSDNIVFGGGTHLTVL
notes: also called 6F011
B15: scFv 2B11 (periplasmic extract, Myc-tagged) (scFv, not shown: small tags and cut ends)
scFv: QVQLQESGPGLVKPSQTLSLTCTVSGGSITTNYYYWSWIRQPPGKGLEWMGAIAYSGSTYYSPSLKSRTSISRDTSKNQFTLQLSSVTPEDTAVYYCARAPYGISREYDYWGQGTQVTVSSGGGGSGGGGSGGGGSHSAVTQPSAVSVSLGQTARITCQGGKFGRYYASWYQQKPGQAPVLVIYKDSERPSGIPERFSGSSSGDTATLSISGAQAEDEADYFCQSGRSSDNAVFGGGTHLTVL

Target: T1, human galectin-10-His (recombinant human galectin-10 with TEV-cleavable N-terminal His-tag) (human)
T1 construct: SEC-MALLS: dimer in solution; also called Gal10-His; humanGal10-His
T1 chain: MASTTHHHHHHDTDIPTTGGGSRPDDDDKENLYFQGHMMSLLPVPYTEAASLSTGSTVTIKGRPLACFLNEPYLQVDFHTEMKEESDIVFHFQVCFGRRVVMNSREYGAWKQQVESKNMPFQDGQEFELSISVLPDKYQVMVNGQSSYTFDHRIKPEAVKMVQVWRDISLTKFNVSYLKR
Assay: ELISA, scFv-hFc on coated galectin-10-His (0.2 ug/mL)
Description: In a similar setup to that used during the initial screening, the relative binding properties of the 12 scFv-human Fc clones were analyzed by ELISA. Briefly, a Maxisorp plate was coated with galectin-10-His at 0.2 μg/mL and blocked with casein, before being incubated with a serial dilution of the scFv-human Fc fusion molecules. After several washing steps, detection of the bound scFv-human Fc was carried out with an anti-human Fc-HRP antibody. Absorbance was measured at 450 nm (reference at 620 nm) with Tecan instrument. Finally, the raw data (OD values) were plotted on GraphPad Prism 7.01. The EC50 value of each compound was calculated with a non-linear regression (log(agonist) vs. response Variable slope (four parameters)).

| Binder | Bmax (OD values) [OD] | EC50 [nM] |
| --- | --- | --- |
| B1 | 0.409 |  |
| B2 | 1.81 | 0.06 |
| B3 | 1.84 | 0.25 |

Target: T2, human galectin-10-His (human)
T2 construct: Whether the last M of the tag is the start Met of galectin-10 is not clear; also called human Gal10-HIS; humanGal10-His
T2 chain: T1 chain
Assay: ELISA, Gal10-His coated at 1 ug/mL, VHH titrated, anti-Myc-HRP
Description: (§1) The binding capacity of the 15 VHH clones was analysed by ELISA. Briefly, a Maxisorp plate was coated overnight with human or cynomolgus WGS or YRT isoforms galectin-10-His at 1 μg/mL and blocked with PBS 1% casein, before being incubated with a serial dilution of the VHH (from 4 μM, dilution 1/3, 12 points of dilutions). […] Absorbance was measured at 450 nm (reference at 620 nm) with Tecan instrument. Finally, the raw data (OD values) were plotted on GraphPad Prism 7.01. […] As a positive control, clone 1D06 from the previous human specific panel was included.

| Binder | Bmax (OD values) [OD] | EC50 [nM] |
| --- | --- | --- |
| B4 | 2 | 30.6 |
| B5 | 1.8 | 106 |
| B6 | 1 |  |
| B7 | 1.1 |  |

Target: T3, cynomolgus galectin-10-His, YRT isoform (cynomolgus)
T3 construct: not shown: His tag
T3 chain: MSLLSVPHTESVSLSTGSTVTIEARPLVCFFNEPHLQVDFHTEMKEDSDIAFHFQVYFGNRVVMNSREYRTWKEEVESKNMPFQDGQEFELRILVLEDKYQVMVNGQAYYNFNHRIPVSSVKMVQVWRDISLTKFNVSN
Assay: as above
Description: as §1

| Binder | Bmax (OD values) [OD] | EC50 [nM] |
| --- | --- | --- |
| B5 | 3 | 66.9 |
| B6 | 2 |  |
| B7 | 2.5 |  |

Each binder was assayed against T4, human galectin-10 as coated in ELISA (soluble galectin-10; tag not given) (human, UniProt Q05315 1-142, limits assumed) (assay: ELISA, scFv periplasmic extract on coated soluble galectin-10, anti-Myc-HRP).
T4 construct: also called coated galectin-10; Gal10
T4 sequence: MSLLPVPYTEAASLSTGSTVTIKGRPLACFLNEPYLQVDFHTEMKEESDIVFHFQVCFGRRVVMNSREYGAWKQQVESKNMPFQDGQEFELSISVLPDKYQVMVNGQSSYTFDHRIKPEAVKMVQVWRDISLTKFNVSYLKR
Description: In order to test the binding capacity of the scFvs to galectin-10, an ELISA binding assay was established. Briefly, a Maxisorp plate was coated with soluble galectin-10 (1 μg/mL), then blocked with casein, before being incubated with the periplasmic extract (dilution 1/5 in PBS) containing the scFv-Myc. Detection of the binder was carried out with an anti-Myc-HRP antibody. Absorbance was measured at 450 nm (reference at 620 nm) with Tecan instrument. A significant number of galectin-10 scFv binders were isolated after the second round of selection (45-87% of binders).

| Binder | PERI-ELISA binding (OD values) [OD] |
| --- | --- |
| B8 | 2.35 |
| B9 | 2.13 |
| B10 | 3.4 |
| B11 | 3.51 |
| B12 | 2.42 |
| B13 | 3.83 |
| B14 | 3.76 |
| B15 | 3.79 |

Target: T1, human galectin-10-His (recombinant …)
Assay: SPR Biacore T3000, scFv-hFc captured by anti-human Fc, galectin-10-His as analyte
Description: In order to determine the binding properties (on-rate/off-rate) of the scFv-human Fc panel, their binding capacity to galectin-10 was analyzed on Biacore T3000. For this purpose, a capture approach was set up. A CM5 Chip was coated with polyclonal anti-human Fc at 8000 RU, then a fixed concentration of the scFv-human Fc panel (1.5 μg/mL), diluted in HBS-EP pH7.4, were captured to reach a binding signal around 150 RU. Finally, a serial dilution of galectin-10-His (serial dilution, 1 over 2 from 5 μg/mL, 6 points of dilution) diluted in HBS-EP pH7.4 was injected. Raw data were analyzed via BIA evaluation software with a blank subtraction (4-3). The kd/KD and Rmax of each scFv-human Fc for galectin-10-His was determined using the Fit Kinetics simultaneous ka/kd/Binding with mass transfer/Local Rmax on BIA evaluation software.

| Binder | Kd [nM] | koff [s⁻¹] |
| --- | --- | --- |
| B1 | 11.7 | 0.00315 |
| B2 | 1.56 | 0.0111 |
| B3 | 4.73 | 0.00177 |
